Results: patent publication US6310180

How the values were obtained:
[1] = test system: substrate IV, H-Lys-Ala-Arg-Val-Nle-Phe(p-NO2)-Glu-Ala-Nle-NH2; assay: steady-state kinetics of substrate IV hydrolysis at 22° C., RP HPLC; the filing calls Km the binding affinity
[2] = biological target: substrate IV, H-Lys-Ala-Arg-Val-Nle-Phe(p-NO2)-Glu-Ala-Nle-NH2 (HIV)

Substance	Km [1]	kcat/Km, hydrolysis of substrate IV [2]
[Ala^38, SPro^39, Abu^67,95]-HIV-1 PR	8.2 µM	
[Ala^38, SPro^39, Abu^67,95]-HIV-1 PR (enzyme)		98400 M^-1, S^-1
[Leu-NHCH2-Thz^38-39, Abu^67,95]-HIV-1 PR	11.4 µM	
[Leu-NHCH2-Thz^38-39, Abu^67,95]-HIV-1 PR (enzyme)		36300 M^-1, S^-1
[SPro^39, Abu^67,95]-HIV-1 PR	11.9 µM	
[SPro^39, Abu^67,95]-HIV-1 PR (enzyme)		119000 M^-1, S^-1
recombinant HIV-1 PR	10.1 µM	
recombinant HIV-1 PR (enzyme)		121000 M^-1, S^-1
